Measured values: patent US20250074980A1 (BRIGHAM AND WOMEN S HOSPITAL, published 2025)
Each block holds one binder with its values, some of them ahead of it.

Legend:
[1] = molecular target: T1, GST-CEACAM1 (human, UniProt P13688 35-141, limits assumed); experiment: competition ELISA: binding of human CEACAM1-GST (37.5 µg/ml) to human CEACAM1 IgV domain tagless protein (1 µg/ml), anti-GST detection, OD 450 nm
T1 construct: also called human CEACAM1-GST protein
T1 sequence: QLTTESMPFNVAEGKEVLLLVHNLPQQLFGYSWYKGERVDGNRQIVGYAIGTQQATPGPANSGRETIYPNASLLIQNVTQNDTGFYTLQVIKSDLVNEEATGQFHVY
Description: (§1) The ability of the CEACAM1 antibodies to block CEACAM1 homodimerization was tested. […] In addition, IgG4 antibody was used as a control (0-1000 nM). Goat polyclonal anti-GST-HSP antibody from Abcam (1:2000) was used and assays were developed by addition of TMB solution (Life technologies). OD values were read at 450 nm on a plate reader. Data was plotted in a Graphpad and best-fit IC-50 values were determined.

[2] = molecular target: T1, GST-CEACAM1; experiment: competition ELISA: binding of human CEACAM1-GST (37.5 µg/ml) to human TIM-3 IgV domain tagless protein (3 µg/ml), anti-GST detection, OD 450 nm
Description: as §1, with “reduce the binding of” for “block”, “to TIM-3” for “homodimerization”, “examined.” for “tested.”, “addition, human” for “addition,”

[3] = molecular target: T2, His-tagged CEACAM1 (human, UniProt P13688 35-428); experiment: SPR multi-cycle
T2 construct: 45 kDa SPR analyte; also called CEACAM1-HIS; CEACAM1 analyte
T2 sequence: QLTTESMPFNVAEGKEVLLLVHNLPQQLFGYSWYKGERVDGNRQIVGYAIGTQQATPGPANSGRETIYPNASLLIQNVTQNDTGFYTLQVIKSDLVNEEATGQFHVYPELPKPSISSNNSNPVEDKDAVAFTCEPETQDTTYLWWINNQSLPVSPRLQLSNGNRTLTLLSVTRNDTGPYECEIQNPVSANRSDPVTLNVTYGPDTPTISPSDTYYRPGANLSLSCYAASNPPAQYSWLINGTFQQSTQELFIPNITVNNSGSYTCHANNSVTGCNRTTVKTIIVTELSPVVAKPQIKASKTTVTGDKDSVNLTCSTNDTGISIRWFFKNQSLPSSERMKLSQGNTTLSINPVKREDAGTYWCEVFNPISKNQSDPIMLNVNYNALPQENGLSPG
Outline: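 Kon, koff, Kd and relative KD were derived from multi-cycle surface plasmon resonance sensorgrams recorded on a Biacore T200. Runs were at 25° C in HBS-P+ (pH 7.4), with purified antibody at 1 μg/ml captured to ~75 RU on a Series S Protein A chip. His-tagged CEACAM1 was passed over as analyte at 80 μl/min in 2-fold dilutions from 200 to 3.125 nM or from 100 to 1.5625 nM, with 50 or 150 seconds of association, 100 seconds of dissociation and glycine-HCl pH 1.5 for regeneration.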

[4] = molecular target: T2, His-tagged CEACAM1; experiment: SPR single-cycle, IgG captured
Outline: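 Biacore T200 single-cycle kinetics at 25° C in HBS-P+ (pH 7.4): antibodies (purified or HEK EBNA supernatant, 1 μg/ml) captured on Protein A to ~75 RU, His-tagged CEACAM1 analyte at 3.125–50 nM (5-point 2-fold) at 50 μl/min without regeneration. Reference channel Fc1 subtracted.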

- IC50 [1]: 2.11 nM
- IC50 [2]: 31.9 nM
B1: CP08H03/Vκ8 S29A (antibody, IgG4, V domains shown)
VH: EVQLLESGGGLVQPGGSLRLSCAASGFIFSSHGMSWVRQAPGKGLEWVATISSGGTYTYYPDSVKGRFTISRDNSKNTLYLQMNSLKAEDTAMYYCARHDFDYFPYWFAHWGQGTLVTVSS
VL: EIVLTQSPATLSLSPGERATLSCRANSAVSYMYWYQQKPGQAPRPWIYLTSNRATGVPARFSGSGSGTDYTLTISSLEPEDFAVYYCQQWSSNPPTFGQGTKLEIK
notes: IgG4 (S241P), kappa; also called CP08_H03/Parent VL; CP08_H03/Parental

- Kd [3]: 105 nM
- koff [3]: 0.0258 s⁻¹
- kon [3]: 246000 M⁻¹ s⁻¹
- relative KD [3]: 1
- Kd [4]: 42 nM
- relative KD to VH0/Vκ0 [4]: 1
B2: chimeric antibody VH0/Vκ0 (antibody, IgG4, V domains shown)
VH: EVQLVESGGDLVKPGGSLKLACAASGFIFSSHGMSWVRQTPDKRLEWVATISSGGTYTYYPDSVKGRFTISRDNDKNTLYLQMNSLKSEDTAMYYCARHDFDYDAAWFAYWGQGTLVTVSS
VL: QIVLTQSPALMSASPGVKVTMTCSANSSVSYMYWYRQKPRSSPKPWIYLTSNLASGVPARFSGSGSGTSYSLTISSMEAEDAATYYCQQWSSNPPTFGSGTKLEIK
notes: IgG4 (S241P), kappa; also called VH0/Vκ0 (control); Chimeric VH0/Vκ0
